# B1: Barstar, P11540 (parent)
# chain: MKKAVINGEQIRSISDLHQTLKKELALPEYYGENLDALWDCLTGWVEYPLVLEWRQFEQSKQLTENGAESVLQVFREAKAEGCDITIILS
# Variants of: B1
# Conditions: Bacillus amyloliquefaciens; pH 7; Thermal; DSC; PIPES 50 mM; reversible: yes (~80%); structure 1BTA; whole UniProt chain shown
Variant,Tm,unfolding enthalpy (calorimetric)
C41A C83A,74 °C,63.4 kcal/mol

# Same assay, conditions: Bacillus amyloliquefaciens; pH 10; Thermal; DSC; CAPS 50 mM; reversible: yes (~80%); structure 1BTA; whole UniProt chain shown
Variant,Tm,unfolding enthalpy (calorimetric)
C41A C83A,68.6 °C,58.6 kcal/mol

# Same assay, conditions: Bacillus amyloliquefaciens; pH 10.3; Thermal; DSC; CAPS 50 mM; reversible: yes (~80%); structure 1BTA; whole UniProt chain shown
Variant,Tm,unfolding enthalpy (calorimetric)
C41A C83A,67 °C,57.4 kcal/mol

# Same assay, conditions: Bacillus amyloliquefaciens; pH 10.5; Thermal; DSC; CAPS 50 mM; reversible: yes (~80%); structure 1BTA; whole UniProt chain shown
Variant,Tm,unfolding enthalpy (calorimetric)
C41A C83A,65.7 °C,56.2 kcal/mol

# Reference: FireProtDB (doi:10.1021/bi00015a036)
